The source of these data is publication PMC10786891, “Massively parallel profiling of RNA-targeting CRISPR-Cas13d”.

Sequences and labels used below:
T1: EsCas13d, nuclease-dead (Eubacterium siraeum, UniProt B0MS50, R295A;H300A;R849A;H854A)
T1 sequence: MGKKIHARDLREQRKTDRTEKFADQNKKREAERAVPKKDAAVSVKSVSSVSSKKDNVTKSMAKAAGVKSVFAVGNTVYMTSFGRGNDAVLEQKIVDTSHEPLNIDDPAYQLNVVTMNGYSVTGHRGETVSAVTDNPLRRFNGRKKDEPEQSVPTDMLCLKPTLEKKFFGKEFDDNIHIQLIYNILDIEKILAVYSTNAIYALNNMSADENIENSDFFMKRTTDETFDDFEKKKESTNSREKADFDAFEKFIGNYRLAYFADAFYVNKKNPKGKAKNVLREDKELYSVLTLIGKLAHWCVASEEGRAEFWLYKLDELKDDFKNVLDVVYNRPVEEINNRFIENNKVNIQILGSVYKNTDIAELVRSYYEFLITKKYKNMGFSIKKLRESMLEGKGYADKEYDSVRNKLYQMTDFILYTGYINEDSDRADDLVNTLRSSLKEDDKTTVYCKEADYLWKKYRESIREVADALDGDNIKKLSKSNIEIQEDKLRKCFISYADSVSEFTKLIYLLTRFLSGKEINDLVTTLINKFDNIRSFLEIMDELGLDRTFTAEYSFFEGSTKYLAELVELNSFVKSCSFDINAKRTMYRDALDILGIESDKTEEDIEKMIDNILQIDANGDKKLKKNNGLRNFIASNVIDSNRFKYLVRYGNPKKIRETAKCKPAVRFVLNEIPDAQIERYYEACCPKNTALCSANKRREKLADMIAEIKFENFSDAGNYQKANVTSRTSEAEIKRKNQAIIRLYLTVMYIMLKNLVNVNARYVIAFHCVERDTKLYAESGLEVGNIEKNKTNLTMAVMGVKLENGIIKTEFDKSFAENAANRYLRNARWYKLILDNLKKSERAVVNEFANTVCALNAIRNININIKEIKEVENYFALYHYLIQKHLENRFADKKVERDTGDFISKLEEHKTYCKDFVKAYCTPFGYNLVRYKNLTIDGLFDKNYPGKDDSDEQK

B1: target 1 U8C,C22A (mixed)
RNA 1: CACCCGUGCAAAAAUGCAGGGGUCUAAAACUGAGCGGAUAACCUCUCUAUGG
RNA 2: GGGAAUGGAUCCACAUCUACGAAUUCGUAACAUAGAGAGGUUACCCGCUCACCGAGAUCGGAAGAGCACACGU
B2: target 1 insA 3' of 5,insG 3' of 1 (mixed)
RNA 1: B1 RNA 1
RNA 2: GGGAAUGGAUCCACAUCUACGAAUUCGUACCAUAGAGAGGUUAUCCGACUCAGCCGAGAUCGGAAGAGCACACGU
B3: target 1 insA 3' of 5,insA 3' of 2 (mixed)
RNA 1: B1 RNA 1
RNA 2: B2 RNA 2 with G53A
B4: target 3 insG 3' of 9,insA 3' of 4 (mixed)
RNA 1: CACCCGUGCAAAAUUGCAGGGGUCUAAAACGACCUGAAUAUUUCAGAUCAAA
RNA 2: GGGAAUGGAUCCACAUCUACGAAUUCGUUUUUGAUCUGAAAUAGUUCAGAGUCUGCAGAUCGGAAGAGCACACGU
B5: target 3 G4U,U8A (mixed)
RNA 1: B4 RNA 1
RNA 2: GGGAAUGGAUCCACAUCUACGAAUUCGUUUUUGAUCUGAAAUAAUCAUGUCUGCAGAUCGGAAGAGCACACGU
B6: target 3 U8A,A11C (mixed)
RNA 1: B4 RNA 1
RNA 2: B5 RNA 2 with A41C, U48G
B7: target 3 insU 3' of 6,insU 3' of 5 (mixed)
RNA 1: B4 RNA 1
RNA 2: B4 RNA 2 with G44U, U46C, C47U, G49U, A50G
B8: target 3 insG 3' of 9,insU 3' of 5 (mixed)
RNA 1: B4 RNA 1
RNA 2: B4 RNA 2 with G49U, A50G
B9: target 3 insA 3' of 8,insA 3' of 2 (mixed)
RNA 1: B4 RNA 1
RNA 2: B4 RNA 2 with G44U, U45A, A50G, G51U, U52A
B10: target 3 del2,del19 (mixed)
RNA 1: B4 RNA 1
RNA 2: GGGAAUGGAUCCACAUCUACGAAUUCGUUUUUAUCUGAAAUAUUCAGGCUGCAGAUCGGAAGAGCACACGU
B11: target 3 C6G,U22A (mixed)
RNA 1: B4 RNA 1
RNA 2: B5 RNA 2 with U30A, A44U, C46G, U48G
B12: target 3 G3U,C6A (mixed)
RNA 1: B4 RNA 1
RNA 2: B5 RNA 2 with A44U, C46A, U48G, G49U
B13: target 3 G4U,A5G (mixed)
RNA 1: B4 RNA 1
RNA 2: B5 RNA 2 with A44U, A47G
B14: target 3 U2A,A13U (mixed)
RNA 1: B4 RNA 1
RNA 2: B5 RNA 2 with A39U, A44U, U48G, U50A
B15: target 3 C1U,U22G (mixed)
RNA 1: B4 RNA 1
RNA 2: B5 RNA 2 with U30G, A44U, U48G, C51U
B16: target 3 U7C,U8A (mixed)
RNA 1: B4 RNA 1
RNA 2: B5 RNA 2 with U45C, U48G
B17: target 3 U2A,G3C (mixed)
RNA 1: B4 RNA 1
RNA 2: B5 RNA 2 with A44U, U48G, G49C, U50A
B18: target 3 U2G,A12U (mixed)
RNA 1: B4 RNA 1
RNA 2: B5 RNA 2 with A40U, A44U, U48G, U50G
B19: target 3 A12G,A18G (mixed)
RNA 1: B4 RNA 1
RNA 2: B5 RNA 2 with A34G, A40G, A44U, U48G
B20: target 3 insC 3' of 9,insA 3' of 7 (mixed)
RNA 1: B4 RNA 1
RNA 2: B4 RNA 2 with G44C, C47A, A48C, G49A, A50G
B21: target 3 U7A,U8A (mixed)
RNA 1: B4 RNA 1
RNA 2: B5 RNA 2 with U45A, U48G
B22: target 3 G3A,U8G (mixed)
RNA 1: B4 RNA 1
RNA 2: B5 RNA 2 with A44G, U48G, G49A
B23: target 3 insG 3' of 5,insA 3' of 4 (mixed)
RNA 1: B4 RNA 1
RNA 2: B4 RNA 2 with G44U, U46C, C47A, A48G
B24: target 3 G3U,C6U (mixed)
RNA 1: B4 RNA 1
RNA 2: B5 RNA 2 with A44U, C46U, U48G, G49U
B25: target 3 insU 3' of 22 (mixed)
RNA 1: B4 RNA 1
RNA 2: GGGAAUGGAUCCACAUCUACGAAUUCGUUUUUUGAUCUGAAAUAUUCAGGUCUGCAGAUCGGAAGAGCACACGU
B26: target 3 insC 3' of 9,insG 3' of 2 (mixed)
RNA 1: B4 RNA 1
RNA 2: B4 RNA 2 with G44C, A50G, G51U, U52G
B27: target 3 U2A,U7A (mixed)
RNA 1: B4 RNA 1
RNA 2: B5 RNA 2 with A44U, U45A, U48G, U50A
B28: target 3 G4U,A11G (mixed)
RNA 1: B4 RNA 1
RNA 2: B5 RNA 2 with A41G, A44U
B29: target 3 C6A,U7A (mixed)
RNA 1: B4 RNA 1
RNA 2: B5 RNA 2 with A44U, U45A, C46A, U48G
B30: target 3 complement block 13-15 (mixed)
RNA 1: B4 RNA 1
RNA 2: B5 RNA 2 with U37A, G38C, A39U, A44U, U48G
B31: target 3 insG 3' of 1,insG 3' of 1 (mixed)
RNA 1: B4 RNA 1
RNA 2: B4 RNA 2 with G44U, U46C, C47A, A48G, A50U, G51C, U52G, C53G
B32: target 3 complement block 1-3 (mixed)
RNA 1: B4 RNA 1
RNA 2: B5 RNA 2 with A44U, U48G, G49C, U50A, C51G

Positions count from the first letter of the chain named. In names and notes the source's numbering stands.

This series has as its target T1, EsCas13d, nuclease-dead. Kind of series: crRNA (strand 1, pre-loaded); Mg2+; 40 mM Tris-HCl pH 7.5, 150 mM NaCl, 6 mM MgCl2, 1 mM DTT, 0.1% Tween-20, 0.2 mg/ml BSA; 25 C; 10 min per concentration, then washed. The conditions noted are these: tags: His6-TwinStrep-SUMO cleaved; N-terminal SNAP kept (SNAP-Surface 488); label: 3' end held by stalled T7 RNA polymerase.
As to B1, the Kd (commonly a measure of binding affinity in units of concentration) is 21.9 ± 2.2 nM.
Turning to B2, the Kd amounted to 5.4 ± 0.4 nM.
With B3, binding was put at a Kd of 7.8 ± 0.7 nM.
Take B4: the Kd was determined as 60 ± 26.5 nM.
B5 had a Kd of 30.2 ± 3.9 nM.
The result for B6 reads 42 ± 7 nM; that for B7, 7.93 ± 0.61 nM.
In the case of B8, the affinity, expressed as Kd, was 65.5 ± 9 nM.
In the case of B9, the affinity, expressed as Kd, was 59.5 ± 18.5 nM.
The value for B10 was 98.5 ± 25 nM.
The value for B11 was 26.2 ± 3.5 nM; that for B12 was 39.7 ± 3.65 nM.
The value for B13 was 7.04 ± 0.57 nM; that for B14 was about 91.5 nM.
B15 yielded a Kd of 77.5 ± 21 nM.
Turning to B16, binding was characterised by a dissociation constant (Kd) of 114 ± 28 nM.
Molecule B17 yielded a Kd of 23.2 ± 2 nM.
The result for B18 reads 46.5 ± 6.5 nM; that for B19, 62 ± 13 nM; that for B20, 60.5 ± 12.5 nM.
The value for B21 was 83 ± 15.5 nM.
Consider B22, for which binding was put at a Kd of 108 ± 33.5 nM.
The result for B23 reads 9.2 ± 1.05 nM; that for B24, 19.2 ± 1.95 nM; that for B25, 17.4 ± 1.8 nM.
The result for B26 reads 81.5 ± 19 nM; that for B27, 13.1 ± 1.7 nM; that for B28, 43.5 ± 8 nM.
The result for B29 reads 46.5 ± 5 nM; that for B30, 67.8 ± 31.8 nM.
B31 displayed a Kd of 85 ± 31.5 nM.
B32: the Kd came out at 23.1 ± 3.9 nM.
